Results taken from patent US20240010730A1 (SHANGHAI HUAOTA BIOPHARMACEUTICAL, published 2024).
Where two headings read alike, the source gives them in different places.

T1: human TIGIT on CHOK1-huTIGIT-2A3 cells (human, UniProt Q495A1 22-244)
T1 construct: whole, on cells; also called cells expressing the human TIGIT
T1 sequence (looked up): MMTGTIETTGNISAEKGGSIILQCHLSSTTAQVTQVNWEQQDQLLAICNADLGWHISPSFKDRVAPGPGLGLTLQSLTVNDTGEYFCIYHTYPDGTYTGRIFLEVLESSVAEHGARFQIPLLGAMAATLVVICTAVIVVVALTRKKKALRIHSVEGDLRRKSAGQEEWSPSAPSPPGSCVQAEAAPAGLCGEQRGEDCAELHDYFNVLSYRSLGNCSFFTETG

T2: Human TIGIT (SPR analyte, Example 7) (human, UniProt Q495A1 22-141, limits assumed)
T2 sequence (looked up): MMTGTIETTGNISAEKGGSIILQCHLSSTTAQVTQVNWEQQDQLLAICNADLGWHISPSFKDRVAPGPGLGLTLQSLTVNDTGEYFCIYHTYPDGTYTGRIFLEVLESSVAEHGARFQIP


What was measured:
[1] = target: T1, human TIGIT on CHOK1-huTIGIT-2A3 cells; experiment: flow cytometry competition with huCD155-moFc on CHOK1-huTIGIT-2A3 cells
Protocol: After reaction, the 96-well U-shaped plate was resuspended with 1% BSA/PBS, centrifuged (300 g×3 min) to discard the supernatant, and washed once in such way; and Alexa488-goat anti-mouse-Fc (Jackson ImmunoResearch, #115-545-071) diluted at 1:300 was added to react for 15 min in the dark at room temperature. After reaction, the 96-well U-shaped plate was resuspended with 1% BSA/PBS, centrifuged (300 g×3 min) to discard the supernatant, washed three times in such a way, and finally resuspended with 100 μL of 1% BSA/PBS for each wall; and the fluorescence intensity of an FITC channel was detected with a flow cytometer (BD, #CantoII).

[2] = target: T1, human TIGIT on CHOK1-huTIGIT-2A3 cells; experiment: flow cytometry on CHOK1-huTIGIT-2A3 cells
Protocol: All chimeric antibodies and humanized antibodies were diluted to 20 μg/ml with 1% BSA in PBS solution (1% BSA/PBS), were added to a 96-well U-shaped plate at 20 μL per well; and a negative control (with 1% BSA/PBS added only) was set up at the same time. The suspension of cells (CHOK1-huTIGIT-2A3, Huabo Biopharm) expressing human TIGIT during the logarithmic growth phase were centrifuged (1000 rpm×5 min) to discard the culture medium; and the cells were resuspended with 1% BSA/PBS until the density of viable cells was 1×10⁶/mL, and were added, at 20 μL (2×10⁴ cells) per well, to the 96-well U-shaped plate with the anti-TIGIT antibody to react for 30 min at room temperature. After reaction, the 96-well U-shaped plate was resuspended with 1% BSA/PBS, centrifuged (300 g×3 min) to discard the supernatant, and washed once in such a way; and PE-goat anti-human-Fc (Jackson ImmunoResearch, #109-115-098) diluted at 1:200 was added to react for 15 min in the dark at room temperature. After reaction, the 96-well U-shaped plate was resuspended with 1% BSA/PBS, centrifuged (300 g×3 min) to discard the supernatant, washed three times in such a way, and finally resuspended with 100 μL of 1% BSA/PBS for each wall; and the fluorescence intensity of a PE channel was detected with a flow cytometer (BD, #CantoII).

[3] = target: T3, Human PD-L1 (SPR analyte, Example 7) (human, UniProt Q9NZQ7 19-238, limits assumed); experiment: SPR (Biacore 8K), antibody captured by anti-human chip, antigen analyte, 1:1 model
Protocol: (§1) The Anti-Human Capture-CMS chip (GE, #BR-1005-30) was prepared according to the method for conjugating the Human Antibody Capture Kit (GE, #BR-1008-39) to the Amino Conjugation Kit (GE, BR-1000-50).

[4] = target: T2, Human TIGIT (SPR analyte, Example 7); experiment: as above
Protocol: as §1

[5] = target: PD-L1 on CHO-K1-0S8-PD-L1-8D6 cells; experiment: cell-based or functional assay
[6] = target: T3, Human PD-L1 (SPR analyte, Example 7); experiment: SPR (Biacore 8K), antibody captured by anti-human chip, antigen analyte, 1:1 model; remark: listed apart in the source
Protocol: as §1

[7] = target: T2, Human TIGIT (SPR analyte, Example 7); experiment: as above; remark: listed apart in the source
Protocol: as §1

[8] = target: TIGIT on Jurkat-TIGIT-22G8 cells; experiment: cell-based or functional assay

T3 sequence (Q9NZQ7 19-238 limits assumed): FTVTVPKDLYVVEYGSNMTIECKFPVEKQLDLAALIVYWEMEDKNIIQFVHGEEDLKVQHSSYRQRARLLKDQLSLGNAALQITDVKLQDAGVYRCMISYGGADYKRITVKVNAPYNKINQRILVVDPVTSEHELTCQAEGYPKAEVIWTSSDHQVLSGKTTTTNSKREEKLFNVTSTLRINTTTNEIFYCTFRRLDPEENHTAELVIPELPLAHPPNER
Sequence of PD-L1 on CHO-K1-0S8-PD-L1-8D6 cells (Q9NZQ7 whole entry): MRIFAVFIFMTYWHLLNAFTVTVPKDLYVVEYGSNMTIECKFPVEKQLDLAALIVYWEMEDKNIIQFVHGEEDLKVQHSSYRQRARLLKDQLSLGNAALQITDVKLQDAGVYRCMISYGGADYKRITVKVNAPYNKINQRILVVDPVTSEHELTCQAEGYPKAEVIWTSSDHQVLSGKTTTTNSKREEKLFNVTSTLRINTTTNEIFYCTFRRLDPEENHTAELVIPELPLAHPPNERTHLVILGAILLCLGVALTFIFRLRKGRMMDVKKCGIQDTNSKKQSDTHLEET

| IC50 [1] [µg/mL] | EC50 [2] [µg/mL] | Kd [6] [nM] | koff [6] [s⁻¹] | kon [6] [M⁻¹ s⁻¹] | Kd [7] [nM] | koff [7] [s⁻¹] | kon [7] [M⁻¹ s⁻¹] | EC50 (nM), IL2 secretion of Jurkat-TIGIT-22G8 cells with PHA and CD155 [8] [nM] | Binder | also measured |
| --- | --- | --- | --- | --- | --- | --- | --- | --- | --- | --- |
| 0.069 | 0.075 | – | – | – | – | – | – | – | 900428 (antibody, human IgG1, kappa, L234A L235A, V domains shown, also called anti-TIGIT chimeric antibody 900428) VH: DVQLQESGPGLVKPSQSLSLTCTVTGYSITSDYAWNWIRQFPGNRLEWMGYISYSGAPRYNPSLKSRISITRDTSKNQFFLQLSFVTTEDTATYYCASLGTDYYAMDYWGQGTSVIVSS VL: DIVMTQSHKFMFTSVGDRVSITCKASQHVSNAVAWYQQKPGQSPKLLIHSASYRYTGVPDRFTGRGSGTDFTFTINSVQAEDLAVYYCQQYYSLPWTFGGGTKLEIKR | – |
| 0.065 | 0.06 | – | – | – | – | – | – | – | 900423 (antibody, human IgG1, kappa, L234A L235A, V domains shown, also called anti-TIGIT chimeric antibody 900423) VH: DVQLQESGPGLVKPSQSLSLTCTVTGYSITSDYAWNWIRQFPGNRLEWMGYISYSGAPRYNPSLKSRISITRDTSKNQFFLQLSFVTTEDTATYYCASLGTDYYAMDYWGQGTSVIVSS VL: DIVMTQSHKFMFTSVGDRVSITCKASQHVSNAVAWYQQKPGQSPKLLIHSASYRYTGVPDRFIGRGSGTDFTFTISSVQAEDLAVYYCQQYYSLPWTFGGGTKLEIKR | – |
| – | – | – | – | – | – | – | – | – | 900691 (bispecific antibody, human IgG1, kappa, also called PD-L1-IgG-TIGIT-scFv) heavy: not shown light: DVVMTQTPLSLSVTPGQPASISCKSSQSLANSYGNTYLSWYLHKPGQSPQLLIYGISNRFSGVPDRFSGSGSGTDFTLKISRVEAEDVGVYYCLQGTHQPPTFGQGTKLEIKRTVAAPSVFIFPPSDEQLKSGTASVVCLLNNFYPREAKVQWKVDNALQSGNSQESVTEQDSKDSTYSLSSTLTLSKADYEKHKVYACEVTHQGLSSPVTKSFNRGEC | Kd [3]: 2.24 nM; koff [3]: 0.000481 s⁻¹; kon [3]: 214000 M⁻¹ s⁻¹; Kd [4]: 0.0925 nM; koff [4]: 9.13e-05 s⁻¹; kon [4]: 987000 M⁻¹ s⁻¹; EC50 (nM), luciferase reporter, Jurkat-NFAT-PD-1-5B8 cells with CHO-K1-0S8-PD-L1-8D6 cells [5]: 1.84 nM |
| 0.062 | 0.053 | – | – | – | – | – | – | – | 900424 (antibody, human IgG1, kappa, L234A L235A, V domains shown, Chimeric form of B3/29F6; also called ADCC KO type human-mouse chimeric antibody (number 900424)) VH: DVQLQESGPGLVKPSQSLSLTCTVTGYSITSDYAWIWIRQFPGNKVEWMGYITSSGSTSYNPSLKSRISFTRDTSKNQFFLQLTSVTTEDTATYYCARLDFGNYGGAMDYWGQGTSVTVSS VL: DIVMTQSHKFMSTSIGDRVSITCKASQHVSTAVAWYQQKPGQSPKLLIYSASYRYTGVPDRFTGSRSGTDFTFTISSVQAEDLAVYYCQQHYITPYTFGGGTKLEIKR | – |
| 0.0665 | 0.0581 | – | – | – | – | – | – | – | HB0031 (antibody, human IgG1, kappa, V domains shown, Humanized anti-TIGIT IgG1; also called 900464) VH: QVQLQESGPGLVKPSETLSLTCTVSGYSITSDYAWIWIRQPPGKGLEWIGYITSSGSTYYNPSLKSRVTFSVDTSKNQFSLKLSSVTAADTATYYCARLDFGNYGGAMDYWGQGTLVTVSS VL: DIQMTQSPSSLSASVGDRVTITCKASQHVSTALAWYQQKPGKAPKLLIYSASYLQSGVPSRFSGSRSGTDFTLTISSLQPEDFATYYCQQHYITPYTFGQGTKLEIKR | – |
| 0.056 | 0.0514 | – | – | – | – | – | – | – | HB0033 (antibody, human IgG1, kappa, V domains shown, Humanized anti-TIGIT IgG1; also called 900476) VH: QVQLQESGPGLVKPSETLSLTCTVSGYSITSDYAWIWIRQPPGNKLEWIGYITSSGSTYYNPSLKSRVTFSVDTSKNQFSLKLSSVTAADTATYYCARLDFGNYGGAMDYWGQGTLVTVSS VL: DIQMTQSPSSLSASVGDRVTITCKASQHVSTALAWYQQKPGKAPKLLIYSASYLQSGVPSRFSGSRSGTDFTLTISSLQPEDFATYYCQQHYITPYTFGQGTKLEIKR | – |
| 0.0919 | 0.0785 | – | – | – | – | – | – | – | HB0032 (antibody, human IgG1, kappa, V domains shown, Humanized anti-TIGIT IgG1; also called 900466) VH: QVQLQESGPGLVKPSETLSLTCTVSGYSITSDYAWIWIRQPPGKKLEWIGYITSSGSTYYNPSLKSRVTFSVDTSKNQFSLKLSSVTAADTATYYCARLDFGNYGGAMDYWGQGTLVTVSS VL: DIQMTQSPSSLSASVGDRVTITCKASQHVSTAVNWYQQKPGKAPKLLIYSASYRQSGVPSRFSGSGSGTDFTLTISSLQPEDFATYYCQQHYITPYTFGQGTKLEIKR | – |
| – | – | 0.893 | 0.000419 | 469000 | 0.0476 | 0.0002 | 4.19e+06 | 12.9 | 900686 (bispecific antibody, human IgG1, kappa, also called TIGIT-IgG-PD-L1-scFv) heavy: not shown light: DIQMTQSPSSLSASVGDRVTITCRASQHVSTAVNWYQQKPGKAPKLLIYSASYLYSGVPSRFSGSRSGTDFTLTISSLQPEDFATYYCQQHYITPYTFGQGTKLEIKRTVAAPSVFIFPPSDEQLKSGTASVVCLLNNFYPREAKVQWKVDNALQSGNSQESVTEQDSKDSTYSLSSTLTLSKADYEKHKVYACEVTHQGLSSPVTKSFNRGEC | – |
| – | – | 1.05 | 0.000492 | 469000 | 0.0478 | 0.000196 | 4.1e+06 | 8.64 | 900683 (bispecific antibody, human IgG1, kappa, also called TIGIT-IgG-PD-L1-scFv) heavy: not shown light: DIQMTQSPSSLSASVGDRVTITCRASQHVSTAVNWYQQKPGKAPKLLIYSASYLYSGVPSRFSGSRSGTDFTLTISSLQPEDFATYYCQQHYITPYTFGQGTKLEIKRTVAAPSVFIFPPSDEQLKSGTASVVCLLNNFYPREAKVQWKVDNALQSGNSQESVTEQDSKDSTYSLSSTLTLSKADYEKHKVYACEVTHQGLSSPVTKSFNRGEC | – |
| – | – | 1.47 | 0.000427 | 290000 | 0.0693 | 0.000245 | 3.53e+06 | 8.96 | 900681 (bispecific antibody, human IgG1, kappa, also called TIGIT-IgG-PD-L1-scFv) heavy: not shown light: DIQMTQSPSSLSASVGDRVTITCRASQHVSTAVNWYQQKPGKAPKLLIYSASYLYSGVPSRFSGSRSGTDFTLTISSLQPEDFATYYCQQHYITPYTFGQGTKLEIKRTVAAPSVFIFPPSDEQLKSGTASVVCLLNNFYPREAKVQWKVDNALQSGNSQESVTEQDSKDSTYSLSSTLTLSKADYEKHKVYACEVTHQGLSSPVTKSFNRGEC | – |
| – | – | 1.29 | 0.000376 | 291000 | 0.0502 | 0.000184 | 3.67e+06 | 11.1 | 900684 (bispecific antibody, human IgG1, kappa, also called TIGIT-IgG-PD-L1-scFv) heavy: not shown light: DIQMTQSPSSLSASVGDRVTITCRASQHVSTAVNWYQQKPGKAPKLLIYSASYLYSGVPSRFSGSRSGTDFTLTISSLQPEDFATYYCQQHYITPYTFGQGTKLEIKRTVAAPSVFIFPPSDEQLKSGTASVVCLLNNFYPREAKVQWKVDNALQSGNSQESVTEQDSKDSTYSLSSTLTLSKADYEKHKVYACEVTHQGLSSPVTKSFNRGEC | – |
| – | – | 2.76 | 0.000527 | 191000 | 0.0428 | 0.00021 | 4.89e+06 | 12.1 | 900685 (bispecific antibody, human IgG1, kappa, also called TIGIT-IgG-PD-L1-scFv) heavy: not shown light: DIQMTQSPSSLSASVGDRVTITCRASQHVSTAVNWYQQKPGKAPKLLIYSASYLYSGVPSRFSGSRSGTDFTLTISSLQPEDFATYYCQQHYITPYTFGQGTKLEIKRTVAAPSVFIFPPSDEQLKSGTASVVCLLNNFYPREAKVQWKVDNALQSGNSQESVTEQDSKDSTYSLSSTLTLSKADYEKHKVYACEVTHQGLSSPVTKSFNRGEC | – |
| – | – | 1.37 | 0.00038 | 278000 | 0.0515 | 0.000204 | 3.96e+06 | 11 | 900687 (bispecific antibody, human IgG1, kappa, also called TIGIT-IgG-PD-L1-scFv) heavy: not shown light: DIQMTQSPSSLSASVGDRVTITCRASQHVSTAVNWYQQKPGKAPKLLIYSASYLYSGVPSRFSGSRSGTDFTLTISSLQPEDFATYYCQQHYITPYTFGQGTKLEIKRTVAAPSVFIFPPSDEQLKSGTASVVCLLNNFYPREAKVQWKVDNALQSGNSQESVTEQDSKDSTYSLSSTLTLSKADYEKHKVYACEVTHQGLSSPVTKSFNRGEC | – |
